Earlier results on two substances are cited in publication PMC7456198.

Like-named read-outs stand apart in the source and are kept apart here.

Usually Kd stands for the constant that tells how readily two partners part at equilibrium.

The target in series [1] is GLP-1 receptor (Homo sapiens) (UniProt P43220).
The target is the same in series [2]. The source holds these as a separate data set.

Sequence of UniProt P43220 (P43220 24-463): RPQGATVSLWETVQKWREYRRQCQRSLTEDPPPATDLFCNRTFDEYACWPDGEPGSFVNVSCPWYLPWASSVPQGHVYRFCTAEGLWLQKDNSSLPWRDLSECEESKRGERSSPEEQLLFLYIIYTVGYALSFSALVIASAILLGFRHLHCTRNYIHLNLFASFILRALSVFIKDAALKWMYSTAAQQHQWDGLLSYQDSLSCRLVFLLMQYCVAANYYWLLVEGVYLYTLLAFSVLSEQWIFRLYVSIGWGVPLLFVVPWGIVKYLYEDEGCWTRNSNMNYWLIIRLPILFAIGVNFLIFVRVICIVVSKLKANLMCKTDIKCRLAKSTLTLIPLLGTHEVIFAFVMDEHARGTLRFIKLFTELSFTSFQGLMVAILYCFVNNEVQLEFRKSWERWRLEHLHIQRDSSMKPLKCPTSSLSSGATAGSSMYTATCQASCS

On to Liraglutide (from UniProt P01275), for which, in series [1], the Kd is 0.11 nM. As for Semaglutide (from UniProt P01275), the Kd in series [2] was 0.38 nM.
